The record followed here is PMC3014015, “Structural Insights into Substrate Specificity in Variants of N-Acetylneuraminic Acid Lyase Produced by Directed Evolution” (Journal of Molecular Biology, 2010).

For data set [1], the system named is T1, CCCN(CCC)C(=O)[C@H](O)[C@H](O)C(O)CC(=O)C(=O)O.
T1 construct: hexa-His-tagged protein
Nature of the data set: steady-state kinetics (Km), coupled lactate dehydrogenase/NADH assay. It counts as biochemical, Escherichia coli.

In data set [2] the target is T2, N-acetylneuraminic acid lyase (Escherichia coli, UniProt P0A6L4, E192N).
T2 construct: gene nanA; hexa-His-tagged protein
T2 sequence (P0A6L4 2-297 E192N): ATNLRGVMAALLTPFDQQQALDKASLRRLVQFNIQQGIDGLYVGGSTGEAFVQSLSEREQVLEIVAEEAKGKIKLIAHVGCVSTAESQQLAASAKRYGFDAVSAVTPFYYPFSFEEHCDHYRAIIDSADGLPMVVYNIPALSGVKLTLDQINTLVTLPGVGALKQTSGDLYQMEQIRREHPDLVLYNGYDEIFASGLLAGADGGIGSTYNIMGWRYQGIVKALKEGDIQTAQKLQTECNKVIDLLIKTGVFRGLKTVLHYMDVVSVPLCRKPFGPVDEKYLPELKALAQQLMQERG
Description: coupled cleavage assay of purified enzyme; crystal soaking gave only the cleavage product pyruvate. It counts as biochemical.

Data set [3] deals with E192N variant of Escherichia coli N-acetylneuraminic acid lyase (Escherichia coli). Description: crystal structure; space group P2_(1), four crystallographically independent subunits (tetramer); crystals grown at 4 °C by sitting drop in 100 mM Tris-HCl pH 8.0-8.30, 200 mM NaCl, 18% (wt/vol) PEG 3350; some crystals soaked with 100 mM pyruvate and 70 mM THB.
For data set [4], the target named is T3, N-acetylneuraminic acid lyase (Escherichia coli, UniProt P0A6L4, E192Q).
T3 construct: gene nanA; hexa-His-tagged protein
T3 sequence (P0A6L4 2-297 E192Q): T2 sequence (P0A6L4 2-297 E192N)
Description: steady-state kinetics (Km), coupled lactate dehydrogenase/NADH assay. It counts as biochemical. The settings on record: read-out: Neu5Ac / Km.

For orientation: kcat means the number of substrate molecules converted per active site and unit of time at saturation. What is called kcat/Km is the second-order rate constant that governs catalysis at low substrate concentration. The stoichiometry N is the number of molecules, sites or subunits per partner or assembly.

In the case of “N-acetylneuraminic acid lyase (Escherichia coli K-12; E192P)”, in data set [1], the Km is 0.2 ± 0.02 mM, the kcat came out at 0.817 ± 0.0167 s⁻¹ and the kcat/Km was 4330 M⁻¹ s⁻¹.

As for `CCCN(CCC)C(=O)[C@H](O)[C@H](O)C(O)CC(=O)C(=O)O` (stereo partly drawn) [DPAH, (5R,6R)-7-(dipropylamino)-4,5,6-trihydroxy-2,7-dioxoheptanoic acid], the “coupled cleavage assay of purified enzyme; crystal soaking gave only the cleavag” value in data set [2] is “confirmed that the E192N enzyme had the highest activity for DPAH”.

Turning to “N-acetylneuraminic acid lyase (Escherichia coli K-12; E192F)”, in data set [1], the Km turned out to be 0.3 ± 0.02 mM, the kcat stood at 1.47 ± 0.0333 s⁻¹ and the kcat/Km was found to be 5170 M⁻¹ s⁻¹.

“N-acetylneuraminic acid lyase (Escherichia coli K-12; E192Q)”: in data set [1], the Km came out at 0.7 ± 0.05 mM, the kcat was 2.83 ± 0.0667 s⁻¹ and the kcat/Km was determined as 4170 M⁻¹ s⁻¹.

“E192N variant of Escherichia coli N-acetylneuraminic acid lyase (enzyme)” yielded a stoichiometry N in data set [3] of 4.

As to “N-acetylneuraminic acid lyase (Escherichia coli K-12; E192M)”, in data set [1], the Km came to 0.2 ± 0.03 mM, the kcat amounted to 1.17 ± 0.05 s⁻¹ and the kcat/Km was determined as 5330 M⁻¹ s⁻¹.

As for N-Acetylneuraminic acid [Neu5Ac], the Km in data set [4] stood at 3.5 ± 0.5 mM.
